Experimental data published in patent US20180125988A1, “TARGETED XTEN CONJUGATE COMPOSITIONS AND METHODS OF MAKING SAME” (AMUNIX OPERATING INC., priority 2014, published 2018).

T1: human neutrophil elastase (Homo sapiens, UniProt P08246)
T1 construct: purchased R&D Systems
T1 sequence (P08246 30-267): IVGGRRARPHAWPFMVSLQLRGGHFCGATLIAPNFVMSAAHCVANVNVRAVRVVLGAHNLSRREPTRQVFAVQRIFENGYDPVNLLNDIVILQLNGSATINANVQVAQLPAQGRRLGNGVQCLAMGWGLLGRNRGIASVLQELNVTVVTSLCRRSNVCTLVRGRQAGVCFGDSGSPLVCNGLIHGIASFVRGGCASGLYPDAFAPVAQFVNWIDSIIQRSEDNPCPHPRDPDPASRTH

B1: XTEN_AE864: extended recombinant polypeptide of 864 amino acids, AE motif family (protein)
chain: GSPAGSPTSTEEGTSESATPESGPGTSTEPSEGSAPGSPAGSPTSTEEGTSTEPSEGSAPGTSTEPSEGSAPGTSESATPESGPGSEPATSGSETPGSEPATSGSETPGSPAGSPTSTEEGTSESATPESGPGTSTEPSEGSAPGTSTEPSEGSAPGSPAGSPTSTEEGTSTEPSEGSAPGTSTEPSEGSAPGTSESATPESGPGTSTEPSEGSAPGTSESATPESGPGSEPATSGSETPGTSTEPSEGSAPGTSTEPSEGSAPGTSESATPESGPGTSESATPESGPGSPAGSPTSTEEGTSESATPESGPGSEPATSGSETPGTSESATPESGPGTSTEPSEGSAPGTSTEPSEGSAPGTSTEPSEGSAPGTSTEPSEGSAPGTSTEPSEGSAPGTSTEPSEGSAPGSPAGSPTSTEEGTSTEPSEGSAPGTSESATPESGPGSEPATSGSETPGTSESATPESGPGSEPATSGSETPGTSESATPESGPGTSTEPSEGSAPGTSESATPESGPGSPAGSPTSTEEGSPAGSPTSTEEGSPAGSPTSTEEGTSESATPESGPGTSTEPSEGSAPGTSESATPESGPGSEPATSGSETPGTSESATPESGPGSEPATSGSETPGTSESATPESGPGTSTEPSEGSAPGSPAGSPTSTEEGTSESATPESGPGSEPATSGSETPGTSESATPESGPGSPAGSPTSTEEGSPAGSPTSTEEGTSTEPSEGSAPGTSESATPESGPGTSESATPESGPGTSESATPESGPGSEPATSGSETPGSEPATSGSETPGSPAGSPTSTEEGTSTEPSEGSAPGTSTEPSEGSAPGSEPATSGSETPGTSESATPESGPGTSTEPSEGSAP
modifications: conjugated
notes: extended recombinant polypeptide of 864 amino acids, AE motif family
B2: XTEN_AG864: extended recombinant polypeptide of 864 amino acids, AG motif family (protein)
chain: GASPGTSSTGSPGSSPSASTGTGPGSSPSASTGTGPGTPGSGTASSSPGSSTPSGATGSPGSSPSASTGTGPGASPGTSSTGSPGTPGSGTASSSPGSSTPSGATGSPGTPGSGTASSSPGASPGTSSTGSPGASPGTSSTGSPGTPGSGTASSSPGSSTPSGATGSPGASPGTSSTGSPGTPGSGTASSSPGSSTPSGATGSPGSSPSASTGTGPGSSPSASTGTGPGSSTPSGATGSPGSSTPSGATGSPGASPGTSSTGSPGASPGTSSTGSPGASPGTSSTGSPGTPGSGTASSSPGASPGTSSTGSPGASPGTSSTGSPGASPGTSSTGSPGSSPSASTGTGPGTPGSGTASSSPGASPGTSSTGSPGASPGTSSTGSPGASPGTSSTGSPGSSTPSGATGSPGSSTPSGATGSPGASPGTSSTGSPGTPGSGTASSSPGSSTPSGATGSPGSSTPSGATGSPGSSTPSGATGSPGSSPSASTGTGPGASPGTSSTGSPGASPGTSSTGSPGTPGSGTASSSPGASPGTSSTGSPGASPGTSSTGSPGASPGTSSTGSPGASPGTSSTGSPGTPGSGTASSSPGSSTPSGATGSPGTPGSGTASSSPGSSTPSGATGSPGTPGSGTASSSPGSSTPSGATGSPGSSTPSGATGSPGSSPSASTGTGPGSSPSASTGTGPGASPGTSSTGSPGTPGSGTASSSPGSSTPSGATGSPGSSPSASTGTGPGSSPSASTGTGPGASPGTSSTGSPGASPGTSSTGSPGSSTPSGATGSPGSSPSASTGTGPGASPGTSSTGSPGSSPSASTGTGPGTPGSGTASSSPGSSTPSGATGSPGSSTPSGATGSPGASPGTSSTGSP
modifications: conjugated
notes: extended recombinant polypeptide of 864 amino acids, AG motif family
B3: AC404: fusion protein of FVII with AE864 (protein)
chain: AVFVTQEEAHGVLHRRRRANAFLEELRPGSLERECKEEQCSFEEAREIFKDAERTKLFWISYSDGDQCASSPCQNGGSCKDQLQSYICFCLPAFEGRNCETHKDDQLICVNENGGCEQYCSDHTGTKRSCRCHEGYSLLADGVSCTPTVEYPCGKIPILEKRNASKPQGRIVGGKVCPKGECPWQVLLLVNGAQLCGGTLINTIWVVSAAHCFDKIKNWRNLIAVLGEHDLSEHDGDEQSRRVAQVIIPSTYVPGTTNHDIALLRLHQPVVLTDHVVPLCLPERTFSERTLAFVRFSLVSGWGQLLDRGATALELMVLNVPRLMTQDCLQQSRKVGDSPNITEYMFCAGYSDGSKDSCKGDSGGPHATHYRGTWYLTGIVSWGQGCATVGHFGVYTRVSQYIEWLQKLMRSEPRPGVLLRAPFPGSPGSPAGSPTSTEEGTSESATPESGPGTSTEPSEGSAPGSPAGSPTSTEEGTSTEPSEGSAPGTSTEPSEGSAPGTSESATPESGPGSEPATSGSETPGSEPATSGSETPGSPAGSPTSTEEGTSESATPESGPGTSTEPSEGSAPGTSTEPSEGSAPGSPAGSPTSTEEGTSTEPSEGSAPGTSTEPSEGSAPGTSESATPESGPGTSTEPSEGSAPGTSESATPESGPGSEPATSGSETPGTSTEPSEGSAPGTSTEPSEGSAPGTSESATPESGPGTSESATPESGPGSPAGSPTSTEEGTSESATPESGPGSEPATSGSETPGTSESATPESGPGTSTEPSEGSAPGTSTEPSEGSAPGTSTEPSEGSAPGTSTEPSEGSAPGTSTEPSEGSAPGTSTEPSEGSAPGSPAGSPTSTEEGTSTEPSEGSAPGTSESATPESGPGSEPATSGSETPGTSESATPESGPGSEPATSGSETPGTSESATPESGPGTSTEPSEGSAPGTSESATPESGPGSPAGSPTSTEEGSPAGSPTSTEEGSPAGSPTSTEEGTSESATPESGPGTSTEPSEGSAPGTSESATPESGPGSEPATSGSETPGTSESATPESGPGSEPATSGSETPGTSESATPESGPGTSTEPSEGSAPGSPAGSPTSTEEGTSESATPESGPGSEPATSGSETPGTSESATPESGPGSPAGSPTSTEEGSPAGSPTSTEEGTSTEPSEGSAPGTSESATPESGPGTSESATPESGPGTSESATPESGPGSEPATSGSETPGSEPATSGSETPGSPAGSPTSTEEGTSTEPSEGSAPGTSTEPSEGSAPGSEPATSGSETPGTSESATPESGPGTSTEPSEGSAPGSSS
B4: AC398: fusion protein of FVII with AE288 (protein)
chain: AVFVTQEEAHGVLHRRRRANAFLEELRPGSLERECKEEQCSFEEAREIFKDAERTKLFWISYSDGDQCASSPCQNGGSCKDQLQSYICFCLPAFEGRNCETHKDDQLICVNENGGCEQYCSDHTGTKRSCRCHEGYSLLADGVSCTPTVEYPCGKIPILEKRNASKPQGRIVGGKVCPKGECPWQVLLLVNGAQLCGGTLINTIWVVSAAHCFDKIKNWRNLIAVLGEHDLSEHDGDEQSRRVAQVIIPSTYVPGTTNHDIALLRLHQPVVLTDHVVPLCLPERTFSERTLAFVRFSLVSGWGQLLDRGATALELMVLNVPRLMTQDCLQQSRKVGDSPNITEYMFCAGYSDGSKDSCKGDSGGPHATHYRGTWYLTGIVSWGQGCATVGHFGVYTRVSQYIEWLQKLMRSEPRPGVLLRAPFPGSPGTSESATPESGPGSEPATSGSETPGTSESATPESGPGSEPATSGSETPGTSESATPESGPGTSTEPSEGSAPGSPAGSPTSTEEGTSESATPESGPGSEPATSGSETPGTSESATPESGPGSPAGSPTSTEEGSPAGSPTSTEEGTSTEPSEGSAPGTSESATPESGPGTSESATPESGPGTSESATPESGPGSEPATSGSETPGSEPATSGSETPGSPAGSPTSTEEGTSTEPSEGSAPGTSTEPSEGSAPGSEPATSGSETPGTSESATPESGPGTSTEPSEGSAPGSSS

Experiments:
[1] = Biodegradation of XTEN in rat plasma, rat kidney homogenate and PBS buffer (SDS-PAGE); format: in vitro ADME; conditions: 0.3 mg/ml
Method: Purified XTEN_AE864 protein was incubated at a final concentration of 0.3 mg/ml in rat plasma (Bioreclamation IVT, Baltimore, Md.), rat kidney homogenate (Bioreclamation), or PBS buffer for up to 7 days at 37° C. Samples were withdrawn at time 0, 4 hours, 24 hours, and 7 days, were immediately frozen and stored at -80° C., then thawed right before analysis. XTEN was extracted from the samples by methanol precipitation. Briefly, methanol pre-chilled at −20° C. was added to the samples at a volume ratio of 2:1 and mixed by vortex. The mixture was kept at −20° C. for 30 min and then centrifuged at 14,000 rpm for 20 min at 8° C. The supernatant was subjected to centrifugal evaporation for 1-2 hours to take the sample to complete dryness, and was then resuspended in PBS buffer to the original volume before methanol extraction. The reconstituted samples were analyzed by SDS-PAGE with staining using Stains-all.

[2] = molecular target: T1, human neutrophil elastase; assay: Neutrophil elastase digestion of XTEN_AE864 (SDS-PAGE); format: biochemical; conditions: 10 μM XTEN, 37° C., 2 hours
Method: It had been speculated that neutrophil elastase, a serine protease with broad substrate specificity, may be able to degrade XTEN. […] 10 μM of purified XTEN_AE864 was incubated with 1:1000 or 1:100 molar ratio (elastase:XTEN) of human neutrophil elastase (R&D Systems) at 37° C. for 2 hours. Samples before and after digestion were analyzed on SDS-PAGE gel followed with coomassie staining (FIG. 86).

[3] = Half-life of XTEN_AG864 in cynomolgus monkeys; format: in vivo
Excerpt: The methods and materials utilized were adapted from those of Example 1, above.

[4] = Analytical size exclusion chromatography of XTEN fusion proteins; format: physicochemical; conditions: for RH (nm), hydrodynamic radius / Apparent MW (kDa): SEC; for Apparent MW (kDa): BioRad calibration standard; for Apparent Molecular Weight Factor: ratio of apparent molecular weight to calculated molecular weight

Molecule | RH (nm), hydrodynamic radius [4] [nm] | Apparent MW (kDa) [4] [kDa] | Apparent Molecular Weight Factor [4] | further results
B1 |  |  |  | degradation in PBS buffer ([1]; PBS buffer, 7 day incubation at 37° C.): only minor signs of degradation; degradation in rat kidney homogenate ([1]; rat kidney homogenate, 37° C., by the 24 hour interval): rapidly degraded; degradation in rat plasma ([1]; rat plasma, 7 day incubation at 37° C.): only minor signs of degradation; degradation by neutrophil elastase ([2]; 1:100 molar ratio (elastase:XTEN)): completely digested; degradation by neutrophil elastase ([2]; 1:1000 molar ratio (elastase:XTEN)): Partial degradation
B2 |  |  |  | half-life [3]: exceeding 60 h
B3 | 10.1 | 1900 | 14.7 | 
B4 | 8.2 | 650 | 8.5 | 
